Results published in US20210038737A1 (OHIO STATE INNOVATION FOUNDATION, published 2021).
Primed or numbered codes have the meaning given here. [ ]: non-standard residue; d: D form. 1Nal = N[C@@H](Cc1cccc2ccccc12)C(=O)O; 2Nal = N[C@@H](Cc1ccc2ccccc2c1)C(=O)O; FITC′ = fluorescein isothiocyanate; Cha = N[C@@H](CC1CCCCC1)C(=O)O; Tle = CC(C)(C)[C@H](N)C(=O)O

B1: peptide 2: Ac-Arg-Arg-Phe-Trp-Gln-Cys-Thr-Arg-Ile-OH (peptide)
peptide: Ac-RRFWQCTRI-OH
notes: Synthetic peptide; also called Compd 2; Compound 2
B2: peptide 3: Ac-Arg-Arg-Phe-Trp-Gln-Cys-Thr-Arg-Cha-OH (peptide)
peptide: Ac-RRFWQCTR[Cha]-OH
SMILES: CC(=O)N[C@@H](CCCNC(=N)N)C(=O)N[C@@H](CCCNC(=N)N)C(=O)N[C@@H](Cc1ccccc1)C(=O)N[C@@H](Cc1c[nH]c2ccccc12)C(=O)N[C@@H](CCC(N)=O)C(=O)N[C@@H](CS)C(=O)N[C@H](C(=O)N[C@@H](CCCNC(=N)N)C(=O)N[C@@H](CC1CCCCC1)C(=O)O)[C@@H](C)O
notes: Synthetic peptide; also called Compd 3; Compound 3
B3: peptide 13: Ac-Arg-Arg-Phe-Trp-Cys-Cys-Thr-Arg-Tle-OH (peptide)
peptide: Ac-RRFWCCTR[Tle]-OH
modifications: cysteine pairing not given here
notes: Synthetic peptide; also called Compd 13; Compound 13
B4: peptide 7: Ac-Arg-Arg-Phe-Trp-Gln-Cys-Thr-Leu-Tle-OH (peptide)
peptide: Ac-RRFWQCTL[Tle]-OH
modifications: not fully specified; printed as Ac-Arg-Arg-Phe-Trp-Gln-Cys-Thr-Leu-Tle-OH
notes: Synthetic peptide; also called Compd 7; Compound 7
B5: peptide 12: Ac-Arg-Arg-Phe-Trp-(D-Cys)-Cys-Thr-Arg-Tle-OH (peptide)
peptide: Ac-RRFW[dC]CTR[Tle]-OH
modifications: cysteine pairing not given here
notes: Synthetic peptide; also called Compd 12; Compound 12
B6: peptide 11: Ac-Arg-Arg-Phe-Trp-(D-Pro)-Cys-Thr-Arg-Tle-OH (peptide)
peptide: Ac-RRFW[dP]CTR[Tle]-OH
SMILES: CC(=O)N[C@@H](CCCNC(=N)N)C(=O)N[C@@H](CCCNC(=N)N)C(=O)N[C@@H](Cc1ccccc1)C(=O)N[C@@H](Cc1c[nH]c2ccccc12)C(=O)N1CCC[C@@H]1C(=O)N[C@@H](CS)C(=O)N[C@H](C(=O)N[C@@H](CCCNC(=N)N)C(=O)N[C@H](C(=O)O)C(C)(C)C)[C@@H](C)O
notes: Synthetic peptide; also called Compd 11; Compound 11
B7: peptide 6: FITC-Cys-Arg-Arg-Arg-Phe-Trp-Gln-Cys-Thr-Arg-Tle-OH (peptide)
peptide: {FITC′}-CRRRFWQCTR[Tle]-OH
modifications: not fully specified; printed as FITC-Cys-Arg-Arg-Arg-Phe-Trp-Gln-Cys-Thr-Arg-Tle-OH; cysteine pairing not given here
notes: Synthetic labeled peptide; assayed with 2 mM TCEP (reduced, linear); also called Compd 6; Compound 6
B8: peptide 15: Ac-Cys-Arg-Arg-Arg-Phe-(2-Nal)-Gln-Cys-Thr-Arg-Tle-OH (peptide)
peptide: Ac-CRRRF[2Nal]QCTR[Tle]-OH
modifications: cysteine pairing not given here
notes: Synthetic peptide; assayed with DTT (reduced, linear); also called Compd 15; Compound 15
B9: peptide 14: Ac-Cys-Arg-Arg-Arg-Phe-(1-Nal)-Gln-Cys-Thr-Arg-Tle-OH (peptide)
peptide: Ac-CRRRF[1Nal]QCTR[Tle]-OH
modifications: cysteine pairing not given here
notes: Synthetic peptide; assayed with DTT (reduced, linear); also called Compd 14; Compound 14

These binders were tested against T1, CAL PDZ domain (CALP5-His) (UniProt Q9HD26 288-371) (assay: FP competition, condition A: probe peptide 26 (50 nM) with 100 nM CALP5-His; competitor titrated).

In order of rising IC50:
1. B4  2.02 µM
2. B1  3.69 µM
3. B6  7.39 µM
4. B2  7.88 µM
5. B3  8.01 µM
6. B5  10.3 µM

What follows are binders tested against T1, CAL PDZ domain (CALP5-His) (assay: direct FP, condition C: 50 nM labeled peptide, CALP5-His titrated).
Procedure: Condition C (denoted with superscript ^c): 50 nM labeled peptide was incubated with 2 mM TCEP in PBS at pH 7.4 containing 0.01% Triton-X100. CALP5-His was serially diluted in PBS containing 0.01% Triton-X100 to which was then added the peptide and TCEP solution. This solution was mixed for 1 h at RT then 20 uL was pipetted into 384-well microplates and fluorescence polarization was measured using a TECAN Infinite M1000 plate reader. KD values were calculated using KaleidaGraph v. 3.6 using the equation: […]

For B7, the Kd was 0.996 µM.

The binders below were run against T1, CAL PDZ domain (CALP5-His) (assay: FP competition, condition B: probe FAM-…-OH (100 nM) with 500 nM CALP5-His; competitor titrated).
Procedure: Serial dilutions of each competitor peptide were prepared in PBS and the incubation solution was added to each. The combined solutions were gently mixed for 1 h at RT after which 20 uL sample was pipetted into 384-well black-on-black microplates and fluorescence polarization was measured using a TECAN Infinite M1000 plate reader. Data was processed to determine IC₅₀ using GraphPad PRISM ver. 6.0.

In order of rising IC50:
1. B8  1.49 µM
2. B9  1.77 µM
